Here are results for 19 sequences from a protein production outcome set (Wang et al. 2014).

The data set is described as follows: label from the status in PepcDB records.
As for “MTNHQKRLAVPKSWPVERKEEAYTTKAAAGPHGEEGVPLLIVLRDVLGYVDSKKEARYALEQDSILINGTAVSDERRPVGMFDILAFDEREEYYRIFPDEGGRLSLTPIDEDAAGSKLGKIVGKTQVAGGDTQLSLHDGETLLVEDATAYDTNDSIVVSNDGEEIVAHFTYEEGALVTAVSGAHAGRIGTIDEIQVTPGSSANNVLIDAENDDERFETVEEYVVVIDENFTDGGDDE”, the protein production entry was “failed”. For the sequence “MLTMQEIKAHYRFTDEDAELLGSLFPLAETNKERLADQFYDYLLGIPETAEFLKEDLVLQKLKQTHQDWFVSLFAGSYDNRYIHNLQKIGHAHVRVGLNAHYVNVAMNVVRQFTLSIIQDNFPDPEERRQRREAVEKILDINLDIMSASYREEEMRKFFVSHRLESKLITATERFTYGLNLILVLALAGVSVSVVGLFIWDIGHIFQGSVEKGILSALGSLLILWMMIELIENEIKILKGGRFNILFFIGVIIVALIREILISTLRHDPLTTQVFLAGTLLVLGVVYFLVSKSQQPYTPH”, the protein production result is “failed”. The result for “MGHETKAQLKDYVEVKIMKIKTTVAALSVLSVLSFGAFAADSIDAAQAQNREAIGTVSVSGVASSPMDIREMLNKKAEEKGATAYQITEARSGDTWHATAELYKLEHHHHHH” reads “not failed”; that for “MDTSDLFASCRKGDVGRVRYLLEQRDVEVNVRDKWDSTPLYYACLCGHEELVLYLLANGARCEANTFDGERCLYGALSDPIRRALRDYKQVTASCRRRDYYDDFLQRLLEQGIHSDVVFVVHGKPFRVHRCVLGARSAYFANMLDTKWKGKSVVVLRHPLINPVAFGALLQYLYTGRLDIGVEHVSDCERLAKQCQLWDLLSDLEAKCEKVSEFVASKPGTCVKVLTIEPPPADPRLREDMALLADCALPPELRGDLWELPFPCPDGFNSCPDICFRVAGCSFLCHKAFFCGRSDYFRALLDDHFRESEEPATSGGPPAVTLHGISPDVFTHVLYYMYSDHTELSPEAAYDVLSVADMYLLPGLKRLCGRSLAQMLDEDTVVGVWRVAKLFRLARLEDQCTEYMAKVIEKLVEREDFVEAVKEEAAAVAARQETDSIPLVDDIRFHVASTVQTYSAIEEAQQRLRALEDLLVSIGLDC”, “failed”; that for “MPLEASELKPTAGPLEASELKPTAGPLEASELKPTAGPLEASELKPTAGPLEASELKPTAGPLEASELKPTAGPLEASELKPTAGMEKTKKIAVMSGKGGVGKTTVAVNLAVALAAEGYQVGLLDLDLHGPNVQRMLGVSLPPSEGEKIVPAKYGDSLKVFSLAMILQEGAPVIWRGPLKHKAIEQLTRDVEWGDLDYLICDLPPGTGDEALSTFQIIKPDAVIVVSTPQKVAGDDVRRAINFVKRLSGKILGLVENMSYLVCPNCGEKIYVFGKGETEKLAEEFGIPLIARIPMDPEVVSLSDEGRPAVVYKRGTVIEEEFKKIVEKVLSLLEHHHHHH”, “failed”. For the sequence “MDSLVASYASSDEEEDLQPRREAFTVKSSEPSASSLFSAIPQPKELKSSEDGDLGSSSSRGKSSSFLSSLPPPKSSISRKKNPNPSSIPKRVVQIRLPVNPRPSNLDDEDDEEEEKARKKRKQMESASASHDSSVRSFLSAMPAPKSSQTLGALPSLGSGSGRRSNLETETPSIAFPQTDSGISDQQNQSYESFSHSNSETEQIVGVDNYYATGYDGGYETIPSGSSVGYDGSSYGGNTWNGGGFEAMTGLPEAVVAMDSGARRGRRGRNQMPEIVEVKQDELMKNRPRVDQVKSTGIAFGPAYQPVTSSSKGKVSKLHKRKHQITALFMDMKHKESELTERRSRGLLTKAETQAKYGW”, the protein production result is recorded as “failed”. In the case of “MPTLFDDPLHQLPRPPRRVAAGVVHLPNFLGLAEQKALVAQARDLAREVVGTPLAMVRPKLKSGQMSVHMLHLGKYWASNPYRYVDVVDGFPVPPLPDSFVDLAHRALLSAGSLSNSLQSWSEAYRAEAALVNYYSPDASMGMHQDANEESEAPVISLSIGDTGIFRLGGTLNRNKPWTDIPLMSGDLIVFGGANRQAFHGIPSIEANTAPAGCGLKEGRINITIRQLALLEHHHHHH” it was “not failed”; in that of “MDFFHHQDTARQRTGLLVMLFTLAVLAITGLVSVISIGIYFYFTGEPFTTQSIISYCLLSFVGVLLVVSISSFIRLSELNANGGRGVAESIGGKLISTDTSNAKHRQLLNVVEEMSIASGIPVPPVYVMAEEHGINAFAAGMSIDDAVIGVTQGALDAFSRDELQGVIAHEFSHILNGDMRLNTRLIGALFGITCIAHFGHLILDNSNSTRHVSRSSSDSNKGFAVIILIAIVCLVLGWLGTLFGNMIKAAISRQREFLADASAVQFTRNDQGIAGALKKIGSNVQGSTLNTKASDEMSHMMFGQSKLSGFSGLFATHPPLDERIRRIEPNWDGSYAQHSHAQNTAFDNEQVSGFAVGGGSPASQSASPSEQLSETGQQLISQLPPELVDIAREPYSARFIAFALIFDGSDIQREMIKSYVPLASQSTLLPWLDYDLPLHLRFPLLELALPALKSLSEAQKISLCKVLRELSETDNQYSLAEWCVINLLEKQLLASFGFIKQHKSLKQLEESVFWLLRELAWVSHSQADKAQRAYHCALAHLGFPEVKLEPANSNWHLSRAALELLLQLKPNDRRMFVKACRLAIESDGEITVAEGEIYRVIACFLEVPEPPLTISG”, “failed”; in that of “MDIWNFFTSFIVQSIAFLTHEVGVGEAVAIILFTLIGRLVLMPINLLAMANMYRNKKAISALKPELDKIKVIHKDKPNEIAKSTMALYKKNNIKILDKKSVINIASQGVFGFGMFQALQQIVFNSKFAWIANIAKPDVALALLVGVITYFSMIMMPGSAEQTSTLLFIIPAIICIITLISFPSAIGLYWATSSVTSLLQSLVLNNYFQKQEINKAI”, “failed”. Consider “MADQGLEESNPMDLSKHPSGIVPTPHSQVIYKMPPRIAAIRLVSSHREVYEPCDDSFALVDALLADRTNLIEHNPKICMEIGCGSGYVITSLILLLQNEVPGVHYLAIDTNPIATRVTKETLEAHGVNADVICADLATGLEKRLAGSVDVIVVNPPYVPTPEYEVGMEGIASAWAGGENGRTVIDKILPVVDLLLSEKGWFYLVTLTSNFPAEICLMMRKKGYASRIVVQRSTEEENLVILKFWRDKDEESQDKETSSSSFVSQFSKSLSSLMEKQWR”, for which the protein production result is “failed”. For “MRTEPQPLHLPVFRAILASMGEGIIFADADDRIRYINAAAEDIRGIIAGNYLGRSIVSIHSPASEGRIRRLIAGLKGGDIPFSTRVIHVREKIFENSYYPIRNENGIYEGTLLISRDITEKELLKEENNSLREQVRADFACGGMIGKSHAMEPVFHMIRATAALDSTILISGESGTGKELVACAIHQMSPRHKNPFVKVNCAALPETLLESELFGHERGAFTGAVRERKGKFEQAHLGTIFLDEIGEMPLAAQAKLLRVIQGKTLERIGGNREIAVDVRIIAATNKDLRREVERGAFREDLFYRLNVIPIHLPPLRERREDILPLAEHFLSVYAERMRKPVHCIAPDARKALLDYDYPGNVRELENAIERGVALSMGETITLADLAPYFVTGASAAPAGAALPKEPPTATLSRAVSVAEQEAIREALQTTGNRKGVAAKLLGISRKTLWEKLKQMERT”, the protein production result is recorded as “failed”.

“MGSGKERDTFVYLAKLSEQAERYEEMVESMKSVAKLNVDLTVEERNLLSVGYKNVIGSRRASWRIFSSIEQKEAVKGNDVNVKRIKEYMEKVELELSNICIDIMSVLDEHLIPSASEGESTVFFNKMKGDYYRYLAEFKSGNERKEAADQSLKAYEIATTAAEAKLPPTHPIRLGLALNFSVFYYEIMNAPERACHLAKQAFDEAISELDTLNEESYKDSTLIMQLLRDNLTLWTSDISEEGGDDAHKTNGSAKPGAGGDDAE”: the protein production result is reported as “failed”.

Consider “MMAQRSLFQCESSVDEELDRMEIRTLTRYGENRRRDKGVPIECDCNAKVVVVTSLDPVTTGKLFFSCPYEISDGPGQGCGFKRWWTVALCDEFDMIKEETTEMKKDLEAANKRVESLAEKIFLMEKKFETLEKKYESLNKYL”, for which the protein production entry is “failed”. For the sequence “MINQATSPAAPISLTTKGLRWANLAFMLYLLLLAVAMVGSGFKWATGDQAKVLFEFASHPIAGLMIGLVATALIQSSSTVTSIIVGLVAGGLPVETAIPMVMGANIGTTVTNTLVSLGHMRCKEEFRRAFASATIHDFFNLLAVLIFLPLEMMFGILEKVSHWLVSPLLATGDMSMKGFDFIKPITKPVITGLETQLSVLGNTFGGVALIVLGIATIFVAITVMGKLMKSLMVGRAREILQNAIGRGPLHGIASGTVVTVLVQSSSTTTSLMVPLVGSGVLKVREIYPFTLGANIGTCITALLAATAVSGEFAVFALQIALVHLSFNLMATVLIYGIPFLRELPIKGAELISTWACKSKMVVVSYLLGVFVVIPGSILALTA”, the protein production result is given as “failed”. The result for “ARFMAVSSELKDDTRTYTVAGQVFFASSDRFMSHFDFREAVERVVIDVTHAHFWDITSVSALDRVVIKFRREGTEVEIKGMNDATRTLVDRFGVHDKPEEVEKLMGGH” reads “not failed”; that for “MISALDSIPEPQNFAPSPDFKWLCEELFVKIHEVQINGTAGTGKSRSFKYYEIISNFVEMWRKTVGNNIYPALVLALPYRDRRIYNIKDYVLIRTICSYLKLPKNSATEQRLKDWKQRVGKGGNLSSLLVEEIAKRRAEPSSKAITIDNVNHYLDSLSGDRFASGRGFKSLVKSKPFLHCVENMSFVELKYFFDIVLKNRVIGGQEHKLLNCWHPDAQDYLSVISDLKVVTSKLYDPKVRLKDDDLSIKVGFAFAPQLAKKVNLSYEKICRTLHDDFLVEEKMDGERIQVHYMNYGESIKFFSRRGIDYTYLYGASLSSGTISQHLRFTDSVKECVLDGEMVTFDAKRRVILPFGLVKGSAKEALSFNSINNVDFHPLYMVFDLLYLNGTSLTPLPLHQRKQYLNSILSPLKNIVEIVRSSRCYGVESIKKSLEVAISLGSEGVVLKYYNSSYNVASRNNNWIKVKPEYLEEFGENLDLIVIGRDSGKKDSFMLGLLVLDEEEYKKHQGDSSEIVDHSSQEKHIQNSRRRVKKILSFCSIANGISQEEFKEIDRKTRGHWKRTSEVAPPASILEFGSKIPAEWIDPSESIVLEIKSRSLDNTETNMQKYATNCTLYGGYCKRIRYDKEWTDCYTLNDLYESRTVKSNPSYQAERSQLGLIRKKRKRVLISDSFHQNRKQLPISNIFAGLLFYVLSDYVTEDTGIRITRAELEKTIVEHGGKLIYNVILKRHSIGDVRLISCKTTTECKALIDRGYDILHPNWVLDCIAYKRLILIEPNYCFNVSQKMRAVAEKRVDCLGDSFENDISETKLSSLYKSQLSLPPMGELEIDSEVRRFPLFLFSNRIAYVPRRKISTEDDIIEMKIKLFGGKITDQQSLCNLIIIPYTDPILRKDCMNEVHEKIKEQIKASDTIPKIARVVAPEWVDHSINENCQVPEEDFPVVNY”, “failed”; that for “QNRIDMAMMRGRCGLWDWNMASGRVYWSRAMYEMLGYIPQDALLSISQITAIINPNDANFFDLAQELMSGKKKHIDINVPMRHADGHYVWMRIRAEVTDEEELHLVGIAFDIS”, “failed”.

“GAPLQRMLDEIAGHAACPVVVTNLAHRVLATAGERSAVDDVLRDWERIARQAGGSEGAGWVRAELGGRGERWGRIVLCGYRGDAATGRLLADRAAEALVLHRMLGGSAHTWEEQSAQGLLTDLVSGVVPARQLLPRARAAGLPVNRRTFVPLVVRDGEPPVLDRVLRMLGLPGLVAELADGATAVLLSLARDQDAEALSAHFATRLRTESGASGTVVAAADPRTAWDDVPAGLREAQHVADAVAENSAVLDLPAVVRLRDVHLRGLIRLLRDDPYVQSFAERELNGLLCGRDAESDLLPVLRTYLATGRNKSRTAQLHHVSRPALYRRLEAIQARLGVDLDDFEQAASVHIALLAHDAQQ”: the protein production entry is “failed”.

On to “MIPYVNEYDTPNCNTLAETAKKSIRTPESLGLDRCIQCGACTASCPAARFTDYSPRQIVKKVLENDRSVLESDMIWSCFYCYSCNMRCPRNNSPVTIVQVLRQMAINEGIGIGKLAYFLEIGECLAENGASKVPGAGVKNMERDLGERWIGIKRNLEPIRSELGLSPRDVRDTHGEVQAILESTGYFEREKWIKAGIQEKKLHGFLKADCSDEEKKNGDFCFESDREYTGQEAITV”, for which the protein production result is “failed”.
